Results reported in US20260242419A1, “A CYCLIC PEPTIDE FOR TRAPPING INTERLEUKIN-1 BETA” (Merck Sharp & Dohme LLC, priority 2023, published 2026).
Starred links: 1 amine or outer side, 2 acyl side, 3 side chain; linkers in the order of their positions; H or OH if unused. Non-standard residues stand in square brackets, D forms with d. No end group written: not given here. TyrEtNAc = (2S)-3-[4-(2-acetamidoethoxy)phenyl]-2-amino-propanoic acid, CC(=O)NCCOc1ccc(C[C@H](N[*:1])C(=O)[*:2])cc1; dProc3CH24Pal = (2R,3S)-3-(4-pyridylmethyl)pyrrolidine-2-carboxylic acid, O=C([C@H]1[C@@H](Cc2ccncc2)CCN1[*:1])[*:2]; ThrOBn = (2S,3R)-2-amino-3-benzyloxy-butanoic acid, C[C@@H](OCc1ccccc1)[C@H](N[*:1])C(=O)[*:2]; daMeSMe = (2R)-2-amino-3-methoxy-2-methyl-propanoic acid, COC[C@@](C)(N[*:1])C(=O)[*:2]; ThrOMe = (2S,3R)-2-amino-3-methoxy-butanoic acid, CO[C@H](C)[C@H](N[*:1])C(=O)[*:2]; dPro(4R-(4-pyridylmethyl)) = O=C(O)[C@H]1C[C@@H](Cc2ccncc2)CN1; Trp(βS-Me,4-F) = C[C@@H](c1c[nH]c2cccc(F)c12)[C@H](N)C(=O)O; Bip(4'-CONH2) = NC(=O)c1ccc(-c2ccc(C[C@H](N)C(=O)O)cc2)cc1; Bip(4'-COOH) = N[C@@H](Cc1ccc(-c2ccc(C(=O)O)cc2)cc1)C(=O)O; Ala(1-bicyclo(1.1.1)pentyl) = N[C@@H](CC12CC(C1)C2)C(=O)O; dPro(3S-(4-F-Bn)) = O=C(O)[C@@H]1NCC[C@@H]1Cc1ccc(F)cc1; Trp(4-Cl) = N[C@@H](Cc1c[nH]c2cccc(Cl)c12)C(=O)O; Ala(pyrimidin-5-yl) = N[C@@H](Cc1cncnc1)C(=O)O; Phe(4-CONH2) = NC(=O)c1ccc(C[C@H](N)C(=O)O)cc1; Phe(4-COOH) = N[C@@H](Cc1ccc(C(=O)O)cc1)C(=O)O; Pro(cis-4-F) = O=C(O)[C@@H]1C[C@H](F)CN1; Ala(4-THP) = N[C@@H](CC1CCOCC1)C(=O)O; Dap(CONH2) = NC(=O)NC[C@H](N)C(=O)O; hTyr = N[C@@H](CCc1ccc(O)cc1)C(=O)O; cisHyp = O=C(O)[C@@H]1C[C@H](O)CN1; d(αMeD) = C[C@@](N)(CC(=O)O)C(=O)O; d(αMeN) = C[C@@](N)(CC(N)=O)C(=O)O; h4Pal = N[C@@H](CCc1ccncc1)C(=O)O; hPhe = N[C@@H](CCc1ccccc1)C(=O)O; 4Pal = N[C@@H](Cc1ccncc1)C(=O)O; αMeD = C[C@](N)(CC(=O)O)C(=O)O; d(αMeS) = C[C@@](N)(CO)C(=O)O; NMeDab = CN[C@@H](CCN)C(=O)O; Dab = NCC[C@H](N)C(=O)O; Aib = CC(C)(N)C(=O)O; Sar = CNCC(=O)O

B1: SEQ ID NO: 215 (peptide)
peptide: cyclo([Bip(4'-CONH2)][4Pal][Phe(4-COOH)]G[Pro(cis-4-F)][Trp(βS-Me,4-F)][Aib]SW[d(αMeS)][Ala(4-THP)]Q[Dab]G[dPro(4R-(4-pyridylmethyl))])
modifications: ring closure inferred; not fully specified (bridges); printed as Bip4CONH2-4Pal-Phe4COOH-G-Proc4F-SbMeW4F-Aib-S-W-daMeS-AlaTHP4-Q-Dab-G-dProc4CH24Pal, cyclic (macrolactam)
B2: SEQ ID NO: 227 (peptide)
peptide: [Bip(4'-COOH)][4Pal][Phe(4-COOH)]G[Pro(cis-4-F)][Trp(βS-Me,4-F)][Aib]SW[d(αMeD)][ThrOMe]Q[Dab]G[dProc3CH24Pal]
modifications: lactam (positions not given here); also: macrolactam, ring places not given here
B3: SEQ ID NO: 219 (peptide)
peptide: cyclo([Bip(4'-COOH)][4Pal][Phe(4-COOH)]G[Pro(cis-4-F)][Trp(βS-Me,4-F)][Aib]SW[d(αMeD)][hTyr]Q[Dab]G[dProc3CH24Pal])
modifications: ring closure inferred; not fully specified (bridges); printed as Bip4CO2H-4Pal-Phe4COOH-G-Proc4F-SbMeW4F-Aib-S-W-daMeD-hY-Q-Dab-G-dProc3CH24Pal, cyclic (macrolactam)
B4: SEQ ID NO: 216 (peptide)
peptide: cyclo([Bip(4'-CONH2)][Ala(1-bicyclo(1.1.1)pentyl)][Phe(4-COOH)]G[Pro(cis-4-F)][Trp(βS-Me,4-F)][Aib]SW[d(αMeS)][Ala(4-THP)]Q[Dab]G[dPro(3S-(4-F-Bn))])
modifications: ring closure inferred; not fully specified (bridges); printed as Bip4CONH2-AlaPent-Phe4COOH-G-Proc4F-SbMeW4F-Aib-S-W-daMeS-AlaTHP4-Q-Dab-G-dProc3Bn4F, cyclic (macrolactam)
B5: SEQ ID NO: 217 (peptide)
peptide: cyclo([Bip(4'-CONH2)][Ala(1-bicyclo(1.1.1)pentyl)][Phe(4-COOH)]G[Pro(cis-4-F)][Trp(βS-Me,4-F)][Aib]SW[d(αMeN)][Ala(4-THP)]Q[Dab]G[dPro(3S-(4-F-Bn))])
modifications: ring closure inferred; not fully specified (bridges); printed as Bip4CONH2-AlaPent-Phe4COOH-G-Proc4F-SbMeW4F-Aib-S-W-daMeN-AlaTHP4-Q-Dab-G-dProc3Bn4F, cyclic (macrolactam)
B6: SEQ ID NO: 213 (peptide)
peptide: cyclo([Bip(4'-COOH)][4Pal][Phe(4-COOH)]G[cisHyp][Trp(βS-Me,4-F)][Aib]SW[d(αMeS)][Ala(4-THP)]Q[Dab]G[dPro(4R-(4-pyridylmethyl))])
modifications: ring closure inferred; not fully specified (bridges); printed as Bip4CO2H-4Pal-Phe4COOH-G-Proc4OH-SbMeW4F-Aib-S-W-daMeS-AlaTHP4-Q-Dab-G-dProc4CH24Pal, cyclic (macrolactam)
B7: SEQ ID NO: 211 (peptide)
peptide: cyclo([Bip(4'-COOH)][4Pal][Phe(4-COOH)]G[Pro(cis-4-F)][Trp(βS-Me,4-F)][Aib]SW[Aib][Ala(4-THP)]Q[Dab]G[dPro(4R-(4-pyridylmethyl))])
modifications: ring closure inferred; not fully specified (bridges); printed as Bip4CO2H-4Pal-Phe4COOH-G-Proc4F-SbMeW4F-Aib-S-W-Aib-AlaTHP4-Q-Dab-G-dProc4CH24Pal, cyclic (macrolactam)
B8: SEQ ID NO: 223 (peptide)
peptide: [Bip(4'-COOH)][4Pal][Phe(4-COOH)]G[Pro(cis-4-F)][Trp(βS-Me,4-F)][Aib]SW[d(αMeD)][h4Pal]Q[Dap(CONH2)]G[dProc3CH24Pal]
modifications: lactam (positions not given here); also: macrolactam, ring places not given here
B9: SEQ ID NO: 209 (peptide)
peptide: cyclo([Bip(4'-COOH)][4Pal][Phe(4-COOH)]G[cisHyp][Trp(βS-Me,4-F)][Aib]SW[αMeD][Ala(pyrimidin-5-yl)]Q[Dab][Sar][dPro(4R-(4-pyridylmethyl))])
modifications: ring closure inferred; not fully specified (bridges); printed as Bip4CO2H-4Pal-Phe4COOH-G-Proc4OH-SbMeW4F-Aib-S-W-aMeD-PyrimAla-Q-Dab-Sar-dProc4CH24Pal, cyclic (macrolactam)
B10: SEQ ID NO: 225 (peptide)
peptide: [Bip(4'-COOH)][4Pal][Phe(4-COOH)]G[Pro(cis-4-F)][Trp(βS-Me,4-F)][Aib]S[Trp(4-Cl)][d(αMeD)][Ala(pyrimidin-5-yl)]Q[Dab]G[dProc3CH24Pal]
modifications: lactam (positions not given here); also: macrolactam, ring places not given here
B11: SEQ ID NO: 230 (peptide)
peptide: [Bip(4'-COOH)][4Pal][Phe(4-COOH)]G[Pro(cis-4-F)][Trp(βS-Me,4-F)][Aib]SW[d(αMeD)][Ala(pyrimidin-5-yl)]Q[Dap(CONH2)]G[dProc3CH24Pal]
modifications: lactam (positions not given here); also: macrolactam, ring places not given here
B12: SEQ ID NO: 210 (peptide)
peptide: cyclo([Bip(4'-COOH)][4Pal][Phe(4-COOH)]G[cisHyp][Trp(βS-Me,4-F)][Aib]SW[αMeD][Ala(4-THP)]Q[Dab][Sar][dPro(4R-(4-pyridylmethyl))])
modifications: ring closure inferred; not fully specified (bridges); printed as Bip4CO2H-4Pal-Phe4COOH-G-Proc4OH-SbMeW4F-Aib-S-W-aMeD-AlaTHP4-Q-Dab-Sar-dProc4CH24Pal, cyclic (macrolactam)
B13: SEQ ID NO: 221 (peptide)
peptide: [Bip(4'-COOH)][4Pal][Phe(4-COOH)]G[Pro(cis-4-F)][Trp(βS-Me,4-F)][Aib]SW[d(αMeD)][hPhe]Q[Dab]G[dProc3CH24Pal]
modifications: lactam (positions not given here); also: macrolactam, ring places not given here
B14: SEQ ID NO: 212 (peptide)
peptide: cyclo([Bip(4'-COOH)][4Pal][Phe(4-COOH)]G[cisHyp][Trp(βS-Me,4-F)][Aib]SW[Aib][Ala(4-THP)]Q[Dab]G[dPro(4R-(4-pyridylmethyl))])
modifications: ring closure inferred; not fully specified (bridges); printed as Bip4CO2H-4Pal-Phe4COOH-G-Proc4OH-SbMeW4F-Aib-S-W-Aib-AlaTHP4-Q-Dab-G-dProc4CH24Pal, cyclic (macrolactam)
B15: SEQ ID NO: 226 (peptide)
peptide: [Bip(4'-COOH)][4Pal][Phe(4-COOH)]G[Pro(cis-4-F)][Trp(βS-Me,4-F)][Aib]S[Trp(4-Cl)][d(αMeD)][Ala(pyrimidin-5-yl)]Q[Dap(CONH2)]G[dProc3CH24Pal]
modifications: lactam (positions not given here); also: macrolactam, ring places not given here
B16: SEQ ID NO: 224 (peptide)
peptide: [Bip(4'-COOH)][4Pal][Phe(4-COOH)]G[Pro(cis-4-F)][Trp(βS-Me,4-F)][Aib]SW[daMeSMe][Ala(pyrimidin-5-yl)]Q[Dab]G[dProc3CH24Pal]
modifications: lactam (positions not given here); also: macrolactam, ring places not given here
B17: SEQ ID NO: 220 (peptide)
peptide: [Bip(4'-COOH)][4Pal][Phe(4-COOH)]G[Pro(cis-4-F)][Trp(βS-Me,4-F)][Aib]SW[Aib][hTyr]Q[Dab]G[dProc3CH24Pal]
modifications: lactam (positions not given here); also: macrolactam, ring places not given here
B18: SEQ ID NO: 222 (peptide)
peptide: [Bip(4'-COOH)][4Pal][Phe(4-COOH)]G[Pro(cis-4-F)][Trp(βS-Me,4-F)][Aib]SW[d(αMeD)][h4Pal]Q[Dab]G[dProc3CH24Pal]
modifications: lactam (positions not given here); also: macrolactam, ring places not given here
B19: SEQ ID NO: 228 (peptide)
peptide: [Bip(4'-COOH)][4Pal][Phe(4-COOH)]G[Pro(cis-4-F)][Trp(βS-Me,4-F)][Aib]SW[d(αMeD)][ThrOMe]Q[Dap(CONH2)]G[dProc3CH24Pal]
modifications: lactam (positions not given here); also: macrolactam, ring places not given here
B20: SEQ ID NO: 229 (peptide)
peptide: [Bip(4'-COOH)][4Pal][Phe(4-COOH)]G[Pro(cis-4-F)][Trp(βS-Me,4-F)][Aib]SW[d(αMeD)][ThrOBn]Q[Dab]G[dProc3CH24Pal]
modifications: lactam (positions not given here); also: macrolactam, ring places not given here

Target: Recombinant human IL-1β (BioLegend 579404) (human, UniProt P01584 117-269)
Assay: cell-based or functional assay

| Binder | MRC5 IC50 [nM] |
| --- | --- |
| B1 | 0.01 |
| cyclo([TyrEtNAc][4Pal][Phe(4-CONH2)]G[Pro(cis-4-F)][Trp(βS-Me,4-F)][Aib]SW[Aib][Ala(pyrimidin-5-yl)]Q[NMeDab]G[dPro(4R-(4-pyridylmethyl))]) (ring closure inferred; not fully specified (bridges)) [SEQ ID NO: 218] | 0.036 |
| B2 | 0.014 |
| B3 | 0.018 |
| B4 | 0.008 |
| B5 | 0.028 |
| B6 | 0.021 |
| B7 | 0.019 |
| B8 | 0.027 |
| B9 | 0.034 |
| B10 | 0.019 |
| B11 | 0.022 |
| B12 | 0.029 |
| B13 | 0.02 |
| B14 | 0.029 |
| B15 | 0.022 |
| B16 | 0.03 |
| B17 | 0.039 |
| B18 | 0.02 |
| B19 | 0.021 |
| B20 | 0.023 |
